{"source": "patent US20110311517A1", "about": "“Antibodies and methods for treating estrogen receptor-associated diseases” (SHENOGEN PHARMA GROUP, LTD., priority 2009, published 2011)", "key": {"ERα36": {"target": "T1, ERα36 (Homo sapiens, UniProt P03372)", "T1 construct": "made in house; host or cells: chemical synthesis (no expression host)", "T1 sequence (P03372 284-310 isoform P03372-4 limits assumed)": "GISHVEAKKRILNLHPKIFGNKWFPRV", "assay": "ELISA of re-natured ScFv binding to ERα36", "experimental": "Streptavidin-coated 96-well plates were washed twice with PBS. Biotinylated ERα36 (final concentration of 20 μg/ml) was added into each testing well. The plates were incubated for 2 h at room temperature and washed three times with PBST. Re-natured ScFv samples (100 μl, S14A1r1, S24A2r2, S33A2r1, S41A3r3, S53A1r1, S66A1r1 and S72A2r1) were added into the testing wells respectively. Each ScFv was diluted five times in five gradients, and two parallel wells were loaded with each ScFv at each gradient. The plates were incubated at 37° C. for 1 h. The plates were washed three times with PBST, followed by addition of 100 μl anti-His-6 mouse monoclonal antibody (1:2000 dilution) per well and 1 h incubation at 37° C. The plates were washed three times with PBST, followed by addition of 100 μl goat anti-mouse-HRP (1:2500 dilution) per well and 1 h incubation at 37° C. The plates were washed six times with PBST, followed by addition of 100 μl OPD to develop under the protection from light. The reactions were terminated by adding 50 μl 2M H2SO4 to each well, and data were collected by microplate reader at 490 nm.\nOne positive control and three negative controls were performed in parallel. The positive control used rabbit anti-ER multi-clonal antibody serum in replacement of the ScFv re-natured sample and goat-anti-rabbit-HRP in replacement of goat-anti-mouse HRP."}, "[1]": {"test_system": "Human breast tumor BCAP-37", "assay": "Tumor growth inhibition in BCAP-37 tumor-bearing nude mice", "type": "in vivo, BALB/c-nu nude mice", "source_text": "49 female BALB/c-nu nude mice (provided by department of laboratory animal science, Peking University Health Science Center) were used in the studies.\n(§1) The tested animals were grouped into 7 groups with 7 nude mice in each group. The seven groups are the negative control group treated with human IgG antibody (purchased from Beijing Biosynthesis Biotechnology Co. Ltd.), the positive control group treated with herceptin (provided by Beijing Shenogen pharma group), the multi-clonal antibody test group treated with rabbit anti-ERα36 multi-clonal antibody (provided by Wang, Zhao-Yi group, Creighton University), and the monoclonal antibody test groups treated with human anti-ERα36 monoclonal ScFv1, ScFv3, ScFv4 and ScFv7 respectively.\n(§2) The test groups were administered with the same dose of rabbit anti-ERα36 multi-clonal antibody, human anti-ERα36 monoclonal ScFv1, ScFv3, ScFv4 and ScFv7 respectively (5 mg/kg, 100 μg/dose). The positive control group was administered with 5 mg/kg herceptin (100 μg/dose,), and the negative control group was administered with 5 mg/kg IgG antibody (100 μg/dose).\n(§3) Human breast tumor BCAP-37 (estrogen receptor positive, provided by department of pharmacology, Institute of Materia Medica, Chinese Academy of Medical Sciences) was implanted subcutaneously into the armpit of the right forelimb of each tested nude mouse. Diethylstilbestrol was administered by gavage with the dose of 7 μg/day for 9 consecutive days after the implantation. On day 10, the mice were grouped into 7 groups and administered with the corresponding drug via intravenous injection, at a dosing interval of 3-4 days, for 6 consecutive doses. Every 3-4 days, the tumor-bearing mice were weighed and their tumor sizes were measured. Parameters were calculated using the following equations:\nVolume of Tumor in animals of each group (VT): Vt=½×a×b^2, (Equation 1),\nwherein a and b represent the length and width of the tumor, respectively;\nwherein V0 is the volume of tumor before drug administration at the time of grouping, Vt is the volume of tumor at each measurement; the calculation method of V0 is the same as that of Vt;\nwherein TRTV is the arithmetic mean of RTV of the test groups, and CRTV is the arithmetic mean of RTV of the negative control group.\nThe tumor bearing mice in each group were terminated after 21 days of observations and drug administrations. The tumors were then excised from the animals, photographed and weighed on 1/10000 analytical balance. The average tumor weights and tumor growth inhibition rates were calculated:\nAll experimental data were shown in mean±standard deviation. Groups were compared using statistical t test."}, "implanted tumors": {"test_system": "implanted tumors", "assay": "Comparison of anti-tumor activity of ScFv-7 with tamoxifen on tumor-bearing nude mice", "type": "in vivo, BALB/c-nu female nude mice", "settings": "after 18 days of drug administration", "experimental": "BALB/c-nu female nude mice were divided into 3 groups, with 7 mice in each group.\nHuman anti-ERα36 ScFv-7 was administered at the dose of 0.1 mg/20 g body weight/day. The positive control tamoxifen was administered at the dose of 0.33 mg/20 g body weight/day. The negative control group was administered with human IgG.\nThe tumor-bearing nude mice were weighed, and the volumes of the implanted tumors were measured every 3-4 days. The relative tumor volumes and tumor growth inhibition rates were calculated using Equation 2 and Equation 4 respectively. Animals received drug administration for 18 days and were terminated 24 h later. The tumors were excised from the animals and weighed. The average tumor weights and tumor growth inhibitions were calculated using Equation 4."}, "[2]": {"assay": "Body weight and mortality of tumor-bearing nude mice during drug administration", "type": "in vivo, BALB/c-nu nude mice", "settings": "mean ± SD", "source_text": "as §1, §2\nas §3, with “equations: […]” for “equations:”"}, "[3]": {"settings": "ScFv concentration 200.00 μg/ml"}, "[4]": {"settings": "BCAP-37 nude mice, 5 mg/kg i.v. every 3-4 days, 6 doses, mean ± SD"}, "[5]": {"settings": "BCAP-37 nude mice, 5 mg/kg i.v. every 3-4 days, Vt relative to V0, mean ± SD"}, "[6]": {"settings": "5 mg/kg i.v. every 3-4 days, 6 doses"}}, "note": "Marks after values point to notes of the source that are not given here."}
{"molecule": "ScFv7: fully human anti-ERα36 single chain antibody, SEQ ID NO: 15 (protein, scFv7) scFv: QSVLTQPPSVSAAPGQKVTISCSGSSSNIGNNYVSWYQQLPGTAPKLLIYDNNKRPSGIPDRFSGSKSGTSATLGITGLQTGDEADYYCGTWDSSLSAGVFGGGTKLTVLGSGGSTITSYNVYYTKLSSSGTEVQLVQSGGGLVQPGRSLRLSCAASGFTFDDYAMHWVRQAPGKGLEWVSGISWNSGSIGYADSVKGRFTISRDNAKNSLYLQMNSLRAEDTALYYCAKEGDSSGWSPDYWGQGTLVTVSSAS", "values": [{"measurement": "OD490 Well1", "setting": "ERα36; ScFv concentration 0.32 μg/ml", "value": 0.122}, {"measurement": "OD490 Well2", "setting": "ERα36; ScFv concentration 0.32 μg/ml", "value": 0.111}, {"measurement": "OD490 Well1", "setting": "ERα36; ScFv concentration 1.60 μg/ml", "value": 0.146}, {"measurement": "OD490 Well2", "setting": "ERα36; ScFv concentration 1.60 μg/ml", "value": 0.155}, {"measurement": "OD490 Well1", "setting": "ERα36; ScFv concentration 8.00 μg/ml", "value": 0.171}, {"measurement": "OD490 Well2", "setting": "ERα36; ScFv concentration 8.00 μg/ml", "value": 0.155}, {"measurement": "OD490 Well1", "setting": "ERα36; ScFv concentration 40.00 μg/ml", "value": 0.294}, {"measurement": "OD490 Well2", "setting": "ERα36; ScFv concentration 40.00 μg/ml", "value": 0.311}, {"measurement": "OD490 Well1", "setting": "ERα36; [3]", "value": 0.690}, {"measurement": "OD490 Well2", "setting": "ERα36; [3]", "value": 0.740}, {"measurement": "Tumor volumes, Day 4 after drug administration", "setting": "[1]; [4]", "value": "186.11 ± 71.13^a mm^3"}, {"measurement": "Tumor volumes, Day 7 after drug administration", "setting": "[1]; [4]", "value": "308.85 ± 117.52^b mm^3"}, {"measurement": "Tumor volumes, Day 11 after drug administration", "setting": "[1]; [4]", "value": "1521.45 ± 366.24^b mm^3"}, {"measurement": "Tumor volumes, Day 14 after drug administration", "setting": "[1]; [4]", "value": "2136.49 ± 479.95^b mm^3"}, {"measurement": "Tumor volumes, Day 18 after drug administration", "setting": "[1]; [4]", "value": "2944.61 ± 526.75^b mm^3"}, {"measurement": "Tumor volumes, Day 21 after drug administration", "setting": "[1]; [4]", "value": "3358.43 ± 445.13^b mm^3"}, {"measurement": "relative tumor volume (RTV), Day 4", "setting": "[1]; [5]", "value": "3.81 ± 1.54^b"}, {"measurement": "relative tumor volume (RTV), Day 7", "setting": "[1]; [5]", "value": "6.45 ± 2.86^b"}, {"measurement": "relative tumor volume (RTV), Day 11", "setting": "[1]; [5]", "value": "31.64 ± 10.24^b"}, {"measurement": "relative tumor volume (RTV), Day 14", "setting": "[1]; [5]", "value": "44.48 ± 13.69^b"}, {"measurement": "relative tumor volume (RTV), Day 18", "setting": "[1]; [5]", "value": "61.54 ± 18.25^b"}, {"measurement": "relative tumor volume (RTV), Day 21", "setting": "[1]; [5]", "value": "70.27 ± 19.61^b"}, {"measurement": "inhibition of tumor growth in tumor-bearing mice (in words)", "setting": "[1]; BCAP-37 nude mice, 5 mg/kg i.v., 6 doses", "value": "strongest inhibitory activities"}, {"measurement": "Tumor volumes, Before drug administration", "setting": "[1]; baseline, BCAP-37 nude mice, 5 mg/kg i.v. every 3-4 days, 6 doses, mean ± SD", "value": "50.62 ± 13.32", "unit": "mm^3"}, {"measurement": "tumor sizes at pathological examination (in words)", "setting": "[1]; excised tumors after 21 days", "value": "the smallest among the mono-clonal antibody groups"}, {"measurement": "Tumor weight", "setting": "[1]; excised tumors after 21 days, BCAP-37 nude mice, 5 mg/kg i.v., 6 doses, mean ± SD", "value": "2.860 ± 0.696", "unit": "g"}, {"measurement": "Tumor growth inhibition rate (%)", "setting": "[1]; from average tumor weights after 21 days vs negative control, 5 mg/kg i.v., 6 doses", "value": 57.97, "unit": "%"}, {"measurement": "tumor sizes at pathological examination (in words)", "setting": "implanted tumors", "value": "significantly smaller than those of the negative group"}, {"measurement": "tumor volume (VT), relative tumor volume (RVT) and relative tumor growth rate (T/C %) versus negative control group", "setting": "implanted tumors", "value": "significantly lower"}, {"measurement": "tumor inhibition rates", "setting": "implanted tumors; ScFv-7 0.1 mg/20 g body weight/day, tamoxifen 0.33 mg/20 g body weight/day", "value": "around 60%"}, {"measurement": "average tumor weights compared with negative group", "setting": "implanted tumors; p-values below 0.01", "value": "significant difference"}, {"measurement": "Body weights of tumor-bearing nude mice, Day 4 after drug administration", "setting": "[2]; [6]", "value": "20.02 ± 0.51"}, {"measurement": "Body weights of tumor-bearing nude mice, Day 7 after drug administration", "setting": "[2]; [6]", "value": "20.65 ± 0.24"}, {"measurement": "Body weights of tumor-bearing nude mice, Day 11 after drug administration", "setting": "[2]; [6]", "value": "21.34 ± 0.51"}, {"measurement": "Body weights of tumor-bearing nude mice, Day 14 after drug administration", "setting": "[2]; [6]", "value": "22.01 ± 0.52"}, {"measurement": "Body weights of tumor-bearing nude mice, Day 18 after drug administration", "setting": "[2]; [6]", "value": "23.15 ± 0.58"}, {"measurement": "Body weights of tumor-bearing nude mice, Day 21 after drug administration", "setting": "[2]; [6]", "value": "23.52 ± 0.47"}, {"measurement": "body weight when grouped", "setting": "[2]; baseline at the time of grouping", "value": "19.67 ± 0.67"}, {"measurement": "Body weights of tumor-bearing nude mice, Before drug administration", "setting": "[2]; baseline, 5 mg/kg i.v. every 3-4 days, 6 doses", "value": "19.67 ± 0.67"}]}
